# From the DeepSol protein solubility set
# Assay: soluble on expression in E. coli; label from the status in PepcDB or PDB records
row,Sequence,soluble on expression in E. coli
1,MEFTLTREKQMIKEMVRDFAEKEIAPKAVYYDKTAEFPYETFQKMGELGLLGIPFPEEYGGSGGDTVSYALAVEEIGRACGGTGLSYAATISLGASPIYYFGTEEQKQKYLVPMASGKTLGAFGLTEPNAGSDAGGTQTKAILDGDEYVISGEKCWITNAEYANTIIVTAVNGIEENGRKRISAFIVPTTSEGLTISSPYDKMGVRASNTCEIVLDGVRVPKENILGDVNKGFKQFLYTLDGGRISIAVLAVGIAQSAFERALQYAKERQQFGKAISNFQAIQFKLADMATEVELARNLVHKAAWLKDNDKPFGKEAAMAKLFASEAASRIANQAVQIHGGYGYMREYEVERHIRDAKLLEIGEGTSEIQRLVIARHLGCR,not soluble
2,MGSDKIHHHHHHMPYAVTLPEFTGPLDLLLRLIERAELDITTIALASVADQYLAHVRTLEEVEPRELAEFVSMAARLILIKSRALLPRSPTTPAEAGDEDAGQLVAQLELYRRFKQAAEVLRRWQDQGRSTFVRLAPPPLLPAPAPISYRITDLLHALERRRQLQLPLAQPEPIVLAPRLTVAEVAERIRARLERTAWFDFTDLLSNDPTTEEVIVSFWAMLELLKRRAIVVEQTMLFGPILIGRGTAPIVTEPADEDEL,not soluble
3,VDREQLVQKARLAEQAERYDDMAAAMKNVTELNEPLSNEERNLLSVAYKNVVGARRSSWRVISSIEQKTSADGNEKKIEMVRAYREKIEKELEAVCQDVLSLLDNYLIKNCSETQYESKVFYLKMKGDYYRYLAEVATGEKRATVVESSEKAYSEAHEISKEHMQPTHPIRLGLALNYSVFYYEIQNAPEQACHLAKTAFDDAIAELDTLNEDSYKDSTLIMQLLRDNLTLWTSDQQDDDGGEGNN,soluble
4,MLPLPLIANGKGFIRALENDGALAVYAPLEGGYEGRYQRRLRANGYASISLSARGLGDVEAYLMQVHGVRPAHLGKKNIAQEGAVGPIYFAQPIAGYQLENLPAQSKGLVLWILEGYILSQTEIQDLISLTKRVPKLKVVLEMGGDRVFRWQPLLDCLQAALEHHHHHH,soluble
5,MGSSHHHHHHSSGRENLYFQGHMKPDAHQVKQFLLNLQDTICQQLTAVDGAEFVEDSWQREAGGGGRSRVLRNGGVFEQAGVNFSHVHGEAMPASATAHRPELAGRSFEAMGVSLVVHPHNPYVPTSHANVRFFIAEKPGADPVWWFGGGFDLTPFYGFEEDAIHWHRTARDLCLPFGEDVYPRYKKWCDEYFYLKHRNEQRGIGGLFFDDLNTPDFDRCFAFMQAVGKGYTDAYLPIVERRKAMAYGERERNFQLYRRGRYVEFNLVWDRGTLFGLQTGGRTESILMSMPPLVRWEYDYQPKDGSPEAALSEFIKVRDWV,soluble
6,NKDWSYRIGFNLYDSQSEITKYNNETNLLGDKIYRKGMKMGEIWGYVTDRFYTEDDFNADGTLKPGIPIPKGAGKVFPGDVLYKNFDDDTETIWSGEGTADNPGDQRIIGNSTPRFHYGITAGISWKGLDLSIFLRGVGKRDYWRTDQIAWPTGGWGSLFKETLNFWTPTNTNAYYPRVYSNDGVNTSYNHWKQSKYLANASYLKLQNITLSYTLPKVWSQRLYFDDVKVFFSGENLYTWDHLPEGLETDMLSKGAWEYPFMRKFSFGINVTF,not soluble
7,MRVASVRWFTPPTRPRPAPLFFGQERALRALEAAFLHRGHGYLVGPSGLGKRARLLAFLEGRAFPKEELVYLPLGEEAFPLLLPEGEGRALVEGVEALFAEFTPGLFREKGFLYAKNLVESRHEREAEALLQTLAQEAKAHGFALAEEEGGFTLTGQGPLPPELSAKLEETVLAYVEVRQRAQAEVAALRRSFAERLLQPRVEGLKARFPEAARYLDWLLESLLRAAALEEEVEGEALLPRLLVEGGTRVVYEPNPTPERLFGHLEYEVREGVLTTHLGLLRPGALMRAAGGVLVLEAHRVLELGSYPLLKRSLATGEIEPLAPRPEVRGPRLQPAPLKAQVFLVGPPEVIALLEEDEEFLELFPFRVEFNPEMPYTEAHVAHLGGFLEAQGVRLLPEGLAALADEARRMAGHQERLDARIYRLLDLAREAARYQDPVGREGVERALKAREDRFALEQELFLKDVEEGVVALEVTGERVGEVNGLVVLEGPLPTGRPVRITAQAGPGREGILSIDREVGLGGQVFHKAVLTLAGYLRGTYAQLGALSATVSLVFEQSYGSLEGDSAGLAELLAVLSAISGLPLRQDLAVTGAVDQTGRVLAVGRVAEKVEGFFRVCQTLGLTGTQGVVLPKANLPHLTLRREVVEAVEEGVFHLFAVEEVDEAVELLFGRRAYWVHEKVREALEHFQKLENGDGEKG,soluble
8,MSKIAIIGATGRAGSQLLEEALRRGHSVTAIARNTAKIGSRAGVVSRDVDVADSAALQAAVAGHDVVISAAHFSSIAANAIIDPVKKAGVKRLLVVGGAGSLLLPGGSKVIDSPGFPEEYKAEASAGGVYLETLRKEQDLDWTFLSPSAEFVEGERTGHFRLGQDDLLVSAEGRSWITFADYAIAMLDEVEKPAHSRQRFTVGYLEHHHHHH,not soluble
9,MELYDTEEQQVEAIKDWWKENGKAVIFGAVIGLGGLFGWRYYQDSVVAAQEAASQSYSKAMDALQAKGIESEGTIQTFIDANKETEYAVLAAMQLAKAQVDAGQLDEALAQLEWAKGATKDAALKPLLTFRVARLQAEQGQFDDALTQLTSIQEKSWAGRVAELRGDILMRKGDSAAAYAAYTEAQQAEDASQTLQMKLDDLAK,not soluble
10,NTLTVKMNDALSSGTGENIGEITVSETPYGLLFTPHLNGLTPGIHGFHVHTNPSCMPGMKDGKEVPALMAGGHLDPEKTGKHLGPYNDKGHLGDLPGLVVNADGTATYPLLAPRLKSLSELKGHSLMIHKGGDNYSDKPAPLGGGGARFACGVIEK,soluble
11,MKLNKLFDSKTVVFKKSDKYGKSDCCKTKCVEGQIEFGVKIPTDFPAFNRALVTFLKTQKNQLNVDLDSFVELYKAENLCYKTALKVVVASITFCETTPFTMKTEPQKNVEVAVKCDSEHTSLIKEYEV,not soluble
12,MKSIYIILVNYNNFQDTIECVKSLRKIKNYHNYKVIIVDNDSKNDSVSKIKSFLQDCLLIESKKNLGFAGGNNLGIKYAMKHNADYVLLLNNDTVVENDFLDKLLEVHENYGNVGIVGGKIYYYYDKNRIWYAGGKINKFTGKTKHIGVNEIDEGQYNNISITGYVTGCMMLISKGAIEKCGVMDEKYFLYYEETDWNVRIKNAGFKIMYTPLSKIYHKVSSTTGKSDLIMSYYYDRNRYYFVFKNFNWVCKLSVTLYILVRLYAKLFKAIAINDVKRKHLIEYTIISIKNNIMGEIRV,not soluble
13,MTQHQTLPQTTEGAYHYQVIRRAIELIDQTDQPISLDEIAANMGMSPAHFQRVFSRWVGVSPKRYQQYLTLGHAKTLLSERFSTLAASHAVGLSGSGRLHDLFLRWEAMSPGEFARKGAGLTIYWGWFESPFGPAIVMGTEKGICGMGFAAEMGAETAFEDLAARWPQASYVEDPMMLRPWVLQAFGAKDGALDTTPLFLIGAPFQIKVWEALLSIPTGHVTTYSEIAQAVGAPRAVRAVGTAVGRNPISWIIPCHRALRKSGGLGGYHWGIPMKRAMLAYEAVELETLEHHHHHH,not soluble
14,WMQTSDGLRIRAGHWRPEGEVRGTVLMFPGRTEYVEKYGNAAQAFVTRGFAMLAVDWRGQGLADRLLEDRRLGHVLEFTDYQRDVAAVVELATTLDLPRPWFVVGHSMGGAIGLRAVMEGLPVAACAFTGPMWGIFFTPVMKPLSWITANLAPAIGMGHKHPATTTLEPYVQAQEFEGNSLTRDPAMYEMMRSQLAAHPELALGAPTNIWLREALAECRALSDRPSPDLPCLTFLGSHEQIVDRKAVRARMARWPRGELVEIPDGEHEVLMEAPEVRDPAYDRM,not soluble
15,TDRVIMSIFTSDKLVDQSWGSLAYLAQLHVEKKFPVDIELYSEVDTIEKMEESLHASIDRKTELIIGHGREFSDIFTKVAPSYPTVRFVTIHGSATYENQTVYTFEKGKIELIAALAATMKSKTRKVALIDAYDGREDEPYFERGLEKYANDIEFFYYVVNSRHDGKQAKAVMDKLIKEGVDVVYSRGNAFNRDVIHYAKQHDIYVIGFLDDQSYLGEEHVLTSVLNDVTQAYVKI,not soluble
16,MGKATYTVTVTNNSNGVSVDYETETPMTLLVPEVAAEVIKDLVNTVRSYDTENEHDVCGW,soluble
17,MGHHHHHHSHMNLGKESRAQTLQNGRRHIHHLGNQLQLNQHCLDTAFNFFKMAVSRHLTRGRKMAHVIAACLYLVCRTEGTPHMLLDLSDLLQVNVYVLGKTFLLLARELCINAPAIDPCLYIPRFAHLLEFGEKNHEVSMTALRLLQRMKRDWMHTGRRPSGLCGAALLVAARMHDFRRTVKEVISVVKVCESTLRKRLTEFEDTPTSQLTIDEF,not soluble
18,APTAPSIDMYGSNNLQFSKIELAMETTSGYNDMVKYHELAKIKVKFNQWSGTSGDTYNVYFDGVKVATGAITGSQTTASFEYGQGGLYQMEIEACDATGCSKSAPVEITIADTDGSHLKPLTMNVDPNNKSYNTDPSIVMGTYFVEWGIYGRDYTVDNMPVDNLTHILYGFIPICGPNESVKSVGGNSFNALQTACRGVNDYEVVIHDPWAAYQKSFPQAGHEYSTPIKGNYAMLMALKQRNPDLKIIPSIGGWTLSDPFYDFVDKKNRDTFVASVKKFLKTWKFYDGVDIDWEFPGGGGAAADKGDPVNDGPAYIALMRELRVMLDELEAETGRTYELTSAIGVGYDKIEDVDYADAVQYMDYIFAMTYDFYGGWNNVPGHQTALYCGSFMRPGQCDGGGVDENGEPYKGPAYTADNGIQLLLAQGVPANKLVLGTAMYGRGWEGVTPDTLTDPNDPMTGTATGKLKGSTAQGVWEDGVIDYKGIKSFMLGANNTGINGFEYGYDAQAEAPWVWNRSTGELITFDDHRSVLAKGNYAKSLGLAGLFSWEIDADNGDILNAMHEGMAGGVVTPPNRRSHHHHHH,soluble
19,MGSDKIHHHHHHLRTNTPTFINIRNSYKIKTIMHFHLSGNAASDLKIVRFEDFSGSADAFRQHWYVHRVTMQRRKHVIVMEESTRYALLFCRVTQPFFKNFPEFFADTLWRHIVSLCAVPTARFGSIQAMTTDMCSENIYHKGLNRSVQAHIRDSFLTLECYLLHEPPINLARQEDVFQMNIRINETPRTRYGEKNYIWSLREFQRLWCEHLGVAAVRG,not soluble
20,MGSDKIHHHHHHMLTASVNEAEPCAEPQRPVIRLHPVTADDAPKLPATRCSTCAIRNVCMPAGLTPIEFARLDAMVCTTRHVKRGDALFRTHDTFQSIYAVRTGSFKTVVMHRDGREQVTGFQIVGETLGLDGVCGGRHNSDAIALEDSTVCIIPFAQLEAVCREVKPMQHHVHQLMSGEIVRESSLMMLLGTMTAEQRVAAFLLNISERFQKRGYSASEFNLRMTREEIGCYLGMKLETVSRMLSKFQRDRLIAPRGKQIRITDPQGLARV,not soluble
21,SLKSFPHGEKAPFPLTLIHINDLHARFDETNQKSSTCTNSKECIAGIARVYHTIKQLKSEYKTKNPLYLNAGDNFQGTLWYNLLRWNVTAYFIKELPPDAMTLGNHEFDHSPKGLAPYLAELEKMKIPTVVANLEKNGEPALKDSKIAPQIVLKVGNRKVGVIGALYDKTHLVAQTGMVTLTNSIEAVRKEAQELKKKNVNIIVVLSHCGLDGDKQLAEEAGDLIDVIVGAHSHSLLLNKDAKVPYDTKYDTIEGDYPLVVKKSNNHTVLITQARSFGKYVGRLTVNFDCEGEVQSWEGYPIYMNNSVKQDEEVLRELEPWRAEVKRLGTQVIGTTEVFLDRESCRWCECTLGDLIADAYADQYTNSTVQPVAFVQAGNFRNPIEKGDITNGLAIEAAPYGSSVDMIKLSGADLWSAIDHSFTLDDEFRYNTAQVSGMTVVADLSKKPYERVQSIDIVGANGAKTALKKDQIYYVAVPSYLADGKDGFAMLKKGTNRVTGPLDSDVLIEYVRKRQTIAKTMFQEKRVVIENHTNGTCSWDLDSQRYKPK,not soluble
